T1: recombinant soluble human 17-1A-antigen (human, UniProt P16422 24-265)
T1 construct: extracellular domain; also called s17-1A; soluble 17-1A-antigen
T1 sequence (looked up): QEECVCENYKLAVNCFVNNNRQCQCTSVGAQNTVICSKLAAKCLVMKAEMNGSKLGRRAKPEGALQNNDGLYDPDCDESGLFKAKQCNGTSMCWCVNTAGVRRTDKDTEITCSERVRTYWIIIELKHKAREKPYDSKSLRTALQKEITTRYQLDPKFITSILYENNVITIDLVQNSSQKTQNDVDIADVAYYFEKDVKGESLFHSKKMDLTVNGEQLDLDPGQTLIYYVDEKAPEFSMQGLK

B1: murine Panorex (antibody, INN chains, looked up, V domains shown)
VH: QVQLQQSGAELVRPGTSVKVSCKASGYAFTNYLIEWVKQRPGQGLEWIGVINPGSGGTNYNEKFKGKATLTADKSSSTAYMQLSSLTSDDSAVYFCARDGPWFAYWGQGTLVTVSA
VL: NIVMTQSPKSMSMSVGERVTLTCKASENVVTYVSWYQQKPEQSPKLLIYGASNRYTGVPDRFTGSGSATDFTLTISSVQAEDLADYHCGQGYSYPYTFGGGTKLEIK
B2: HD70 (VD4.5huIgG1-k5.1) (antibody, V domains shown)
VH: EVQLLESGGGVVQPGRSLRLSCAASGFTFSSYGMHWVRQAPGKGLEWVAVISYDGSNKYYADSVKGRFTISRDNSKNTLYLQMNSLRAEDTAVYYCAKDMGWGSGWRPYYYYGMDVWGQGTTVTVSS
VL: ELQMTQSPSSLSASVGDRVTITCRASQSISSYLNWYQQKPGQPPKLLIYWASTRESGVPDRFSGSESGTNYTLTISSLQPEDFATYFCQQSDSLPITFGQGTRLDIQ
notes: Complete human IgG1 antibody produced in CHO cells; also called human HD70; not shown: human IgG1 heavy chain constant region

Experiments:
[1] = target: recombinant soluble human 17-1A-antigen (human) (UniProt P16422); assay: SPR (BIACORE 2000), s17-1A immobilized on CM5, 1. set
[2] = target: recombinant soluble human 17-1A-antigen (human) (UniProt P16422); assay: SPR (BIACORE 2000), s17-1A immobilized on CM5, 2. set
[3] = target: T1, recombinant soluble human 17-1A-antigen; assay: as above
Procedure: Surface plasmon resonance measurement was performed using the BIACORE 2000 device (Biacore AB, Freiburg, Freiburg, Germany). Immobilization of recombinant soluble 17-1A-antigen in each flow cell and analysis of the interaction was carried out with an automatic method in BIACORE 2000. The antigen was covalently coupled to sensor chip CM5 via primary amine groups. After activation of the carboxylated dextran matrix of CM5 sensor chip with a single injection of […] of 0.1 M N-hydroxisuccinimide/0.4 M N-ethyl-N′-(3-dimethylaminopropyl)-carbodiimide (NHS/EDC9) through all four flow cells, flow cells 1,2,3 and 4 were successively included into the flow path during injection of s17-1A-antigen (60 μg/ml in 10 mM sodium acetate, pH 4.7). Different contact times of 17-1A to the activated surface lead to approximately 2500 response units (RU9 in flow cell 1, 14000 RU in flow cell 2, 780 RU in flow cell 3 and 290 RU in flow cell 4). Excess activated esters were blocked by injection of 85 μl 1 M ethanolamine pH 5 over all four flow cells. Binding experiments were performed at 25° C. in buffer of pH 7.4 containing 10 mM Hepes, 150 mM NaCl, 3 mM EDTA and 0.005% surfactant P20. The binding kinetics of antibodies to immobilized recombinant 17-1A were determined by injecting antibody concentrations ranging from 0.5 to […]. The sensor chip was regenerated between each run with 100 mM Glycin, 500 mM NaCl, 0.005% Tween pH3. The association and dissociation rate constants, Kon and Koff were analysed using BIA-evaluation software from Biacore AB as described (Karlsson, (1991) J Immunol Meth 145: 229-240).
Two sets of affinity determinations were carried out (1. set: M79, H79, D7.2, Panorex; 2. set: Panorex, HD70); the murine Panorex was also included in set 2 as internal reference.

| Binder | Kd [1] [nM] | koff [1] [s⁻¹] | kon [1] [M⁻¹ s⁻¹] | Kd [2] [nM] | koff [2] [s⁻¹] | kon [2] [M⁻¹ s⁻¹] | Kd [3] [nM] | koff [3] [s⁻¹] | kon [3] [M⁻¹ s⁻¹] |
| --- | --- | --- | --- | --- | --- | --- | --- | --- | --- |
| B1 | 200 | 0.022 | 110000 | 270 | 0.027 | 100000 |  |  |  |
| B2 |  |  |  |  |  |  | 390 | 0.035 | 90000 |
